Assay results taken from patent publication US20180155451A1 (published 2018).

B1: GpH7-A5/GpH7-B3 variant I336_04F/GpL16-k0 (antibody, human IgG1, kappa)
heavy 1: not shown
heavy 2: not shown
light: DIVMTQSPLSLPVTPGEPASISCQASESLVHSNRNTYLHWYLQKPGQSPQLLIYKVSNRFSGVPDRFSGSGSGTDFTLKISRVEAEDVGVYYCSQNTHVPPTFGQGTKVEIERTVAAPSVFIFPPSDEQLKSGTASVVCLLNNFYPREAKVQWKVDNALQSGNSQESVTEQDSKDSTYSLSSTLTLSKADYEKHKVYACEVTHQGLSSPVTKSFNRGEC
notes: heterodimerized IgG1, one H chain mutated; also called He Ab
B2: GpH7-A5/GpH7-B3 variant I336_15Y/GpL16-k0 (antibody, human IgG1, kappa)
heavy 1: not shown
heavy 2: not shown
light: B1 light
notes: as for B1
B3: GpH7-A5/GpH7-B3 variant Q295_02A/GpL16-k0 (antibody, human IgG1, kappa)
heavy 1: not shown
heavy 2: not shown
light: B1 light
notes: He Ab: alteration in one H chain only; also called He Ab
B4: GpH7-A5/GpH7-B3 variant Q295_10E/GpL16-k0 (antibody, human IgG1, kappa)
heavy 1: not shown
heavy 2: not shown
light: B1 light
notes: as for B3
B5: GpH7-A5/GpH7-B3 variant E333_13S/GpL16-k0 (antibody, human IgG1, kappa)
heavy 1: not shown
heavy 2: not shown
light: B1 light
notes: as for B3
B6: GpH7-A5/GpH7-B3 variant I332_01G/GpL16-k0 (antibody, human IgG1, kappa)
heavy 1: not shown
heavy 2: not shown
light: B1 light
notes: as for B3
B7: GpH7-A5/GpH7-B3 variant S324_15Y/GpL16-k0 (antibody, human IgG1, kappa)
heavy 1: not shown
heavy 2: not shown
light: B1 light
notes: as for B3
B8: GpH7-A5/GpH7-B3 variant I336_10E/GpL16-k0 (antibody, human IgG1, kappa)
heavy 1: not shown
heavy 2: not shown
light: B1 light
notes: as for B1
B9: GpH7-A5/GpH7-B3 variant E333_16H/GpL16-k0 (antibody, human IgG1, kappa)
heavy 1: not shown
heavy 2: not shown
light: B1 light
notes: as for B3
B10: GpH7-A5/GpH7-B3 variant S324_16H/GpL16-k0 (antibody, human IgG1, kappa)
heavy 1: not shown
heavy 2: not shown
light: B1 light
notes: as for B3
B11: GpH7-A5/GpH7-B3 variant S324_09D/GpL16-k0 (antibody, human IgG1, kappa)
heavy 1: not shown
heavy 2: not shown
light: B1 light
notes: as for B3
B12: GpH7-A5/GpH7-B3 variant Y300_08L/GpL16-k0 (antibody, human IgG1, kappa)
heavy 1: not shown
heavy 2: not shown
light: B1 light
notes: as for B3
B13: GpH7-A5/GpH7-B3 variant I332_19Q/GpL16-k0 (antibody, human IgG1, kappa)
heavy 1: not shown
heavy 2: not shown
light: B1 light
notes: as for B3
B14: GpH7-A5/GpH7-B3 variant A330_20W/GpL16-k0 (antibody, human IgG1, kappa)
heavy 1: not shown
heavy 2: not shown
light: B1 light
notes: as for B3
B15: GpH7-A5/GpH7-B3 variant E333_04F/GpL16-k0 (antibody, human IgG1, kappa)
heavy 1: not shown
heavy 2: not shown
light: B1 light
notes: as for B3
B16: GpH7-A5/GpH7-B3 variant I336_09D/GpL16-k0 (antibody, human IgG1, kappa)
heavy 1: not shown
heavy 2: not shown
light: B1 light
notes: as for B1
B17: GpH7-A5/GpH7-B3 variant I336_13S/GpL16-k0 (antibody, human IgG1, kappa)
heavy 1: not shown
heavy 2: not shown
light: B1 light
notes: as for B1
B18: GpH7-A5/GpH7-B3 variant I336_14T/GpL16-k0 (antibody, human IgG1, kappa)
heavy 1: not shown
heavy 2: not shown
light: B1 light
notes: as for B1
B19: GpH7-A5/GpH7-B3 variant I336_19Q/GpL16-k0 (antibody, human IgG1, kappa)
heavy 1: not shown
heavy 2: not shown
light: B1 light
notes: as for B1
B20: GpH7-A5/GpH7-B3 variant E333_03V/GpL16-k0 (antibody, human IgG1, kappa)
heavy 1: not shown
heavy 2: not shown
light: B1 light
notes: as for B3
B21: GpH7-A5/GpH7-B3 variant S298_03V/GpL16-k0 (antibody, human IgG1, kappa)
heavy 1: not shown
heavy 2: not shown
light: B1 light
notes: as for B3
B22: GpH7-A5/GpH7-B3 variant E333_02A/GpL16-k0 (antibody, human IgG1, kappa)
heavy 1: not shown
heavy 2: not shown
light: B1 light
notes: as for B3
B23: GpH7-A5/GpH7-B3 variant S298_14T/GpL16-k0 (antibody, human IgG1, kappa)
heavy 1: not shown
heavy 2: not shown
light: B1 light
notes: as for B3
B24: GpH7-A5/GpH7-B3 variant I336_16H/GpL16-k0 (antibody, human IgG1, kappa)
heavy 1: not shown
heavy 2: not shown
light: B1 light
notes: as for B1
B25: GpH7-A5/GpH7-B3 variant S324_14T/GpL16-k0 (antibody, human IgG1, kappa)
heavy 1: not shown
heavy 2: not shown
light: B1 light
notes: as for B3
B26: GpH7-A5/GpH7-B3 variant S324_02A/GpL16-k0 (antibody, human IgG1, kappa)
heavy 1: not shown
heavy 2: not shown
light: B1 light
notes: as for B3
B27: GpH7-A5/GpH7-B3 variant S324_01G/GpL16-k0 (antibody, human IgG1, kappa)
heavy 1: not shown
heavy 2: not shown
light: B1 light
notes: as for B3
B28: GpH7-A5/GpH7-B3 variant I336_12R/GpL16-k0 (antibody, human IgG1, kappa)
heavy 1: not shown
heavy 2: not shown
light: B1 light
notes: as for B1
B29: GpH7-A5/GpH7-B3 variant E333_09D/GpL16-k0 (antibody, human IgG1, kappa)
heavy 1: not shown
heavy 2: not shown
light: B1 light
notes: as for B3
B30: GpH7-A5/GpH7-B3 variant Q295_14T/GpL16-k0 (antibody, human IgG1, kappa)
heavy 1: not shown
heavy 2: not shown
light: B1 light
notes: as for B3
B31: GpH7-A5/GpH7-B3 variant L234_04F/GpL16-k0 (antibody, human IgG1, kappa)
heavy 1: not shown
heavy 2: not shown
light: B1 light
notes: as for B3
B32: GpH7-A5/GpH7-B3 variant D270_10E/GpL16-k0 (antibody, human IgG1, kappa)
heavy 1: not shown
heavy 2: not shown
light: B1 light
notes: as for B3
B33: GpH7-A5/GpH7-B3 variant I336_11K/GpL16-k0 (antibody, human IgG1, kappa)
heavy 1: not shown
heavy 2: not shown
light: B1 light
notes: as for B1
B34: GpH7-A5/GpH7-B3 variant S324_20W/GpL16-k0 (antibody, human IgG1, kappa)
heavy 1: not shown
heavy 2: not shown
light: B1 light
notes: as for B3
B35: GpH7-A5/GpH7-B3 variant I336_18N/GpL16-k0 (antibody, human IgG1, kappa)
heavy 1: not shown
heavy 2: not shown
light: B1 light
notes: as for B1
B36: GpH7-A5/GpH7-B3 variant E333_20W/GpL16-k0 (antibody, human IgG1, kappa)
heavy 1: not shown
heavy 2: not shown
light: B1 light
notes: as for B3
B37: GpH7-A5/GpH7-B3 variant S298_02A/GpL16-k0 (antibody, human IgG1, kappa)
heavy 1: not shown
heavy 2: not shown
light: B1 light
notes: as for B3
B38: GpH7-A5/GpH7-B3 variant I332_13S/GpL16-k0 (antibody, human IgG1, kappa)
heavy 1: not shown
heavy 2: not shown
light: B1 light
notes: as for B3

Experiments:
[1] = target: T1, FcγRIa (human, UniProt P12314 16-292); test: SPR (Biacore), relative to GpH7-A5/GpH7-B3/GpL16-k0 = 100
T1 construct: extracellular domain; also called FcgRI; FcgRIa
T1 sequence (P12314 16-292): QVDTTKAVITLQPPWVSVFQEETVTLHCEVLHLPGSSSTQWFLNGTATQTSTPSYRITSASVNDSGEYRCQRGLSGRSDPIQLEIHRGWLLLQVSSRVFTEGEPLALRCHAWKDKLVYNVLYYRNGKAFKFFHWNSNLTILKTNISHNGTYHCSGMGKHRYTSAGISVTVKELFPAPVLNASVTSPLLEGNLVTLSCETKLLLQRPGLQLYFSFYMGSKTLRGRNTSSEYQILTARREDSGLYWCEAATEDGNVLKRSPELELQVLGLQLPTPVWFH
Procedure: (§1) The heterodimerized antibodies He Abs in which one of the H chains was introduced with an alteration were assayed for their binding activities to each activating FcγR and inhibitory FcγR according to the method described in Example 4. […] The activating FcγRs in FIGS. 26, 27, 28, and 29 are FcγRIa, FcγRIIa (R), FcγRIIa (H), and FcγRIIIa, respectively.
(§2) Analysis of interaction between objective antibody and the FcγR was carried out using Biacore T100 (GE Healthcare). HBS-EP+ (GE Healthcare) was used as the running buffer, and the measurement temperature was set to 25° C. Chips produced by immobilizing the antigen peptide by the amine coupling method to a Series S Sencor Chip CM5 (GE Healthcare), or alternatively, chips produced by allowing preliminarily biotinylated antigen peptides to interact with and immobilize onto a Series S Sensor Chip SA (certified) (GE Healthcare) were used. Antibodies of interest were captured onto an antigen peptide-immobilized chip, and allowed to interact to each FcγR diluted with running buffer. To regenerate and repeatedly use the chip, the antibodies captured on the chip were washed off by reacting 10 mM glycine-HCl, pH 1.5.

[2] = target: T2, FcγRIIb (human, UniProt P31994 43-217); test: as above
T2 construct: extracellular domain; also called FcgRIIb; 2b
T2 sequence (looked up): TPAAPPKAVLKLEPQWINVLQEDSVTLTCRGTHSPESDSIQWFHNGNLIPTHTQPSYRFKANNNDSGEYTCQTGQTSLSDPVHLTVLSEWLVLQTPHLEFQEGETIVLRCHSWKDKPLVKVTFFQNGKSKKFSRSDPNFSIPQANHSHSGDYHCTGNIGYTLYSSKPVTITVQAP
Procedure: as §1, §2

[3] = target: T3, FcγRIIIa extracellular domain with C-terminal His tag (human, UniProt P08637 17-208); test: SPR, relative to GpH7-A5/GpH7-B3/GpL16-k0
T3 construct: extracellular domain; also called 3a; FcgRIIIa
T3 sequence (P08637 17-208): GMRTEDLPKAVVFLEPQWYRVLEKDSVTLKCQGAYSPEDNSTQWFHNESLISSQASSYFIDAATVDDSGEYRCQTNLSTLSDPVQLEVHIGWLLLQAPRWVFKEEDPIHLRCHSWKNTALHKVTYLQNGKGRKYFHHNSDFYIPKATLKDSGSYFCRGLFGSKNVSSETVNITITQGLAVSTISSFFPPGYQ
Procedure: as §1, §2

[4] = target: T4, FcγRIIb extracellular domain with C-terminal His tag (human, UniProt P31994 43-217); test: SPR, relative to GpH7-A5/GpH7-B3/GpL16-k0
T4 construct: extracellular domain; also called 2b; FcgRIIb
T4 sequence (looked up): T2 sequence (looked up)
Procedure: as §1, §2

Binder	He/Con_1a (Ia binding) [1]	He/Con_2b (IIb binding) [2]	He/Con_3a [3] [control=100]	He/Con_2b [4] [control=100]
B1	106 relative (control = 100)	91.2 relative (control = 100)	–	–
B2	103 relative (control = 100)	68.2 relative (control = 100)	–	–
B3	–	–	106	79.7
B4	–	–	100	94.8
B5	–	–	103	81.8
B6	–	–	111	87.1
B7	–	–	101	88.2
B8	108 relative (control = 100)	89.8 relative (control = 100)	–	–
B9	–	–	103	83.3
B10	–	–	104	83.5
B11	–	–	101	85.8
B12	–	–	105	73.6
B13	–	–	110	94.3
B14	–	–	104	76.1
B15	–	–	101	94.6
B16	104 relative (control = 100)	92.1 relative (control = 100)	–	–
B17	102 relative (control = 100)	83.7 relative (control = 100)	–	–
B18	104 relative (control = 100)	89.5 relative (control = 100)	–	–
B19	104 relative (control = 100)	58.2 relative (control = 100)	–	–

Binder	He/Con_1a (Ia binding) [1]	He/Con_2b (IIb binding) [2]	He/Con_3a [3] [control=100]	He/Con_2b [4] [control=100]
B20	–	–	103	93.2
B21	–	–	109	64.5
B22	–	–	105	83.8
B23	–	–	113	77.9
B24	101 relative (control = 100)	85.8 relative (control = 100)	–	–
B25	–	–	103	88.4
B26	–	–	104	78.3
B27	–	–	105	81.1
B28	102 relative (control = 100)	92.1 relative (control = 100)	–	–
B29	–	–	112	94.3
B30	–	–	115	66.8
B31	–	–	118	99.8
B32	–	–	123	76.5
B33	105 relative (control = 100)	90.3 relative (control = 100)	–	–
B34	–	–	102	87.5
B35	108 relative (control = 100)	97.6 relative (control = 100)	–	–
B36	–	–	101	89.5
B37	–	–	160	73.4
B38	–	–	104	98.4
